We go through two molecules from paper PMC5402393, “Interactions of AMTN, ODAM and SCPPPQ1 proteins of a specialized basal lamina that attaches epithelial cells to tooth mineral” (Scientific Reports, 2017).

The term stoichiometry N denotes a count of units in the complex or per binding partner.

B1: recombinant human ODAM, purified, His-tag cleaved (natural protein, UniProt A1E959 16-279, looked up)
chain: APLIPQRLMSASNSNELLLNLNNGQLLPLQLQGPLNSWIPPFSGILQQQQQAQIPGLSQFSLSALDQFAGLLPNQIPLTGEASFAQGAQAGQVDPLQLQTPPQTQPGPSHVMPYVFSFKMPQEQGQMFQYYPVYMVLPWEQPQQTVPRSPQQTRQQQYEEQIPFYAQFGYIPQLAEPAISGGQQQLAFDPQLGTAPEIAVMSTGEEIPYLQKEAINFRHDSAGVFMPSTSPKPSTTNVFTSAVDQTITPELPEEKDKTDSLREP
notes: ~32 kDa; also called hODAM; source: E. coli BL21(DE3)-star, purified (Ni-NTA, TEV cleavage, Superose 6 gel filtration); not shown: His6, N-terminal, cleaved

Series [1] concerns the molecule itself. Nature of the series: SEC; Superose 6 GL 10/300 for ODAM, S200 for AMTN; 50 mM PB pH 7.4; purified recombinant human proteins, His-tag cleaved; self-association.
Series [2] deals with B1. Nature of the series: circular dichroism; far-UV CD (180-250 nm) of purified hODAM, hAMTN and their mixture in 50 mM PB pH 7.2; change of secondary structure on mixing. The following applies: both partners purified. On the technique in general: Circular dichroism is the unequal absorption of left and right circularly polarised light.

For the molecule B1, in series [1], the “stoichiometry N” value lay within 12 to 13 subunits.

B2: recombinant human AMTN, purified, His-tag cleaved (natural protein, UniProt Q6UX39 17-209, looked up)
chain: LPQLKPALGLPPTKLAPDQGTLPNQQQSNQVFPSLSLIPLTQMLTLGPDLHLLNPAAGMTPGTQTHPLTLGGLNVQQQLHPHVLPIFVTQLGAQGTILSSEELPQIFTSLIIHSLFPGGILPTSQAGANPDVQDGSLPAGGAGVNPATQGTPAGRLPTPSGTDDDFAVTTPAGIQRSTHAIEEATTESANGIQ
notes: ~21 kDa; also called hAMTN; source: E. coli BL21(DE3)-star, purified (Ni-NTA, TEV cleavage, S200 gel filtration); not shown: His6, N-terminal, cleaved
In the case of B2, the “stoichiometry N” value in series [1] was found to be 5 subunits. Moreover, the binding result in series [2] is listed as “binds”.
